Assay results as given in the nanobody polyreactivity screen of Harvey et al. (2022).

Test: yeast display, Sf9 membrane polyspecificity reagent, FACS + sequencing; frameworks hold sequencing errors
In short: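 Polyreactivity labels are assigned by the sorting gate from which each nanobody was recovered. The gates were low and high (top ~1%), set on anti-HA fluorescence for expression and streptavidin fluorescence for reagent binding. Before sorting, galactose-induced (36–48 hours) yeast display cells were stained for 1 hour at 4 °C with 10% biotinylated, detergent-solubilized Sf9 membrane reagent.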

| Sequence | polyreactivity (PSR sort gate) |
| --- | --- |
| QVQLVESGGGLVQAGGSLRLSCAASGSTFNSNAMGWYRQAPGKERELVAAINYSGGSTYYADSVKGRFTISRDNAKNTVYLQMNSLKPEDTAVYYCNKVYFDHYLSRVYYWGQVTQVTVSS | high polyreactivity |
| QVQLVESGGGLVQAGGSLRLSCAASGRIFQYYAMGWYRQAPGKERELVAAITRSGGRTYYADSVKGRFTISRDNAKNTVFLQMNSLKPEDTAVYYCAARDWYYTMYYWGQGTQVTVSS | high polyreactivity |
| QVQLVESGGGLVQAGGSLRLSCAASGLTFYGYTMGWYRQAPGKERELVADISISGGSTRYADSVKGRFTISRDNAKNTVYLQMNSLKPEDTAVYYCARDDIYYSNIYDYWGQGTQVTVSS | low polyreactivity |
| QVQLVESGGGLVQAGGSLRLTCAASGAIFDSYAMGWYRQAPGKEWQLVASISYRGGSTYYADSVKGRFTISRDHAKNTVYLQKNSLKPEDTAVYYCAATPGYHYRSWRYYYWGQGTLVTVSS | high polyreactivity |
| QVQLVDSGGGLVQAGGSLSLSCAASGRTFARYTMGWSRQAPGKERELLAVISRSGGSTYYADSVKGRFTISRDNAKNSVYLKKNSLKQEDTAVYYCAAGYFVVTTLEYYFWGQGTQVTVSS | high polyreactivity |
| QVQLVESGGGLVQAGGSLRLSCAASGRIFYEYAMGWYRQAPGKERELVAAITRGDSTYYADSVKGRCTISRDNAKNTVYLQMNSLKPEDTAVYYCNAGVFDYSGDSNYWGQGTQVTVSS | low polyreactivity |
| QVQLVESGGGLDQAGGSLPLSCAASGNTFYPNAMGWYRQAPGKERELVAAITTSGGTTYYADSVKGRFTISRDNANYTVYLQMNSLKPEDTAVYYCAAYWSRDKYDYWGQGTQVTVSS | low polyreactivity |
| QVQLVESGGGLVQAGGSLRLSCAASGSTFWFNGMGWYRQAPGKERELVAVITFSTGSTSYADSVKGRCTISRDDAKNTVYLQMNSLKPEDTAVYYCAAEYVIYYWFEWLDLDYWGQGTQVTVSS | high polyreactivity |
| QVQLVESGGGLVQAGGSLLLSCAASGLTFYPNAMGWYRQAPGKERELVAAISSSGDSTYSADSVKVRFTISRDNAKNTVYLQMNSLKPEDTAVYYCAADLGYYNARWYEYWGQGTQVTVSS | high polyreactivity |
| QVQLVESGGGLVQAGGSLRLSCPASGSIFRGYGMGWSRQAPGKERELVAAMSSSGGTYYADSVKGRFTISRDNAKKTVYLQMNSLKPEDTAVYYCNARVRTQQRWVDYWGQGTQVTVSS | high polyreactivity |
| QVQLVESGGCLVQAGGSLRLSCAASGSIFNSNAMGWYRPARGKERELVAVISWSDGSTRYADSVKGRFTISRDNAKNTVYLQMHSLKPEDTAVYYCNADLVYYYRQEVDYWGQGTQVTVTS | low polyreactivity |
| QVQLVESGGGLVQAGGSLRLSCAASGITFDYYDMGWYRTAPGKERELVAAISSDGSTYYADSVKGRFTISRDNAKNTVYLQMNSLKPEDTAVYYCNAVAIEPYFYVVYDIFDYWGQGTQVTVSS | low polyreactivity |
| QVQLVESGAGLVQAGGSLRLSCAASVSTLDLYAMGWYRQAPGKERELVAYISWSGGSTYYADSVKGRFTISRDNAKNTVYLQMNSLKPEDTAVYYCAAGNITPYRYYHGYYQSIYDYWGQGTQVTVSS | low polyreactivity |
| QVQLVESGGGLVQAGGSLRLSCAASGLIFKSYAMGWSRQAPGKERELVAVISSSGGSTYYADSVKGRFTISRDNAKNTVYLQMNSLKPEDTAVYYCAARSTYRTGDYWGQGTQVTVSS | high polyreactivity |
| QVQLVESGGGLVQAGGSLRLSCAASGSTFYPYAMGWYRQAPGKERELVAAISSRDGRTYYADSVKGRFTISRDNAKNTVYLQMNSLKPEDTAVYYCAASSFNNGHRYDYWGQGTQVTVSS | high polyreactivity |
| QVQLVESGGGLVQAGGSLRLSCAASGFTFGRYAMGWYRQAPGKERELVAAITWSGGTTTYYADSVKGRFTISRDNAKNTVYLQMNSLKPEDTAVYYSAADLYFYIYSYNYWGQGTQVTVSS | low polyreactivity |
| QVQLVESGGGLVQAGGSLRLSCASSGSTFSYYTMGWNRQAPGKERELVAAITRSGGRTYYADSVKGRFTISRDNAKNTVYLQMNSLKPEDTAVYNCAAYRANSGEFDYWGQGTQVTVTS | high polyreactivity |
| QVQLVESGGGLVQAGGSLRLSCAASGRIFDGNTMGWYIPAPGKERELVAAISGGGSTDYADSVKGRFTISRDNAKNTVYLQMNSLKPEDTAVYYCAATTGPVPLKGDYWGQGTQVTVSS | low polyreactivity |
| QVQLVESGGGLVQAGGSLRLSCAASGSIFYFYAMGWYRQAPGKERELVAAISRSVGSTNYADSVKGRFTISRDNAKNTVYLQMNSLKPEDTAVYYCAARRYGAYYWGQGTQVTVSS | high polyreactivity |
| QVQLVESGGGLVQAGGSLRLSCAASGLIFKWYGMGWYRQAPGKERELVAAITENGGSTYYADSVKGRFTISRDNAKNTVYLQMNSLKPEDTAVYYCAAETWADWYSEFYWGQGTQVTVSS | high polyreactivity |
| QVQLVESGGGLVQAGGSLRLSCAASGRISRCYVMGWYRQEPGKERELVAAITWNSGSTYYADSVKGRFTISRDNAKNTVYLQMNSLKPEDTAVYYCAAVLYSRYQQYDFWGQGTQVTVSS | high polyreactivity |
| QVQLVESGGGLVQEGGSIRLSCAASGRIFYFNTMGWSRQAPGKERELVAAISKNGGSTYYADSVKGRFTISRDNEKNSVYLQMNSLKPEDTAFYLCAKTRRLSPYDYWGLGTQVTVSS | high polyreactivity |

| Sequence | polyreactivity (PSR sort gate) |
| --- | --- |
| QVQLVESGGGLVQAGGSLRLSCAASGSTFTPYAMGWYRPAPGKERELVATISSRGGSTSYADSVKGRFTISRDNAKNTVYLQMNSLKPEDTAVYYCARKVRRVARIMYYWGQGTQVTVSS | high polyreactivity |
| QVQLVESGGGLVQAGGSLRLSCAASGSTFDYYAMGWYRQAPGKERELVAAISRTGGRTYYADSVKGRFTISRDNAKNTVFLQMNSLKPEDTAVYYCAARGGWVRRYGWRLDYWGQGTQVTVSS | low polyreactivity |
| QVQLVESGAGLVQAGGRLRLRCDASGFIFRYYAMGWYRQAPGKERELVAAISESGASTYYADSVKGRFTISRDNAKNTVYLQMNSLKPEDTAVYYCAAKPRKSGPYYFYDLNYWGQGTQVTVSS | high polyreactivity |
| QVQLVESGGGLVQAGGSLRLSCAASGSIFRSNAMGWYRQAPGKERELVAAISRSGGRTYYADSVKGRFTISRDNAKNTVYLLMNSLKPEDTAVYYCAAQVVRSLKYEYWGQGTQVTVSS | high polyreactivity |
| QVQLVESGGGLVQAGGSHRLSCAASGSIFRRYAMGWYRQAPGKERELVAAIDSGGNTYADSVKGRFTISRDNAKNTVYLQMISLQPEDTAVYYCSADGGEFSSYGYWGQGTQVTVSS | low polyreactivity |
| QVQLVESGGGLVQAGGSLRLSCAASGSTFYRYAMGWYRQAPGKERELVAAISRGGGRTNYADSVKGRFTISRDNAKNTVYLQMNSLKPEDTAVYYCAADDTYTRYDYWGQGTQVTVSS | high polyreactivity |
| QVQLVESGGGLVQAGGSLRLSCAASGSTLRRYAMGWYRQAPGKEMELVAAISGSGDSTYYADSVKGRFTISRDNAKNTVYLQMNSLKPEDTAVYYCNAVYAFNGYDYWGQGTQVTVSS | low polyreactivity |
| QVQHVESCGGLVQAGGSLRLSCAASGFTFASNVMGWYRQAPGKERDLVAAITSGASTNYADSVKGRFTISRDNAKNTFYLQMNSLKPEDTAVYYCAAGRQWYVFYEFDYWGQGTQVTVSS | high polyreactivity |
| QVQLVESGGGLVQAGGSLRLSCAAYGRTFASYALGWYRQAPGKEREFVAVISVNGGNTYYADSVKGRFTISRDNAKNTVYLQMNSLKPEDTAVYYCARFDGWYQGYYPLYEFDYWGQGTQVTVSS | high polyreactivity |
| QVQLVESGGGLVQAGGSLRLSCAASGRIFVIYAMGWYRQAPGKERELVAVISSDGSTYYADSVKGRFTISRDNAKNTVYLQMNSLKPEDTAVYYCAADRIGRYRPYIGWVVRSYYWGQGTQVTVSS | low polyreactivity |
| QVQLVESGGGLVQAGGSLRLSCAASGRIFTTYVMGCYRQAPGKERELVAAISWSGGNTYYADSVKGRFTISRDNAKNTVYLQMNSLKPEDTAVYYCNAVGTIREGDYWGQGTQVTVSS | low polyreactivity |
| QVQLVESGGGLVQAGGSLRLSCAASGSTFYVNAMGWYRQAPGKERELVAAITKSGGNTYYADSVKGRFTISRDNAKNTVYLQMNSLKPEDTAVYYCAKKYPRDMDYWGQGTQVTVSS | high polyreactivity |
| QVQLVESGGGLVQAGGSLRLSCAASGSTFAYYAMGWYSPAPGKERELVAAISSSGGRTYYADSVKGRFTISRDNAKNTVYLQMYSLKPEDTAVYYCAARSPYYSASVRYDYWGQGTQVTVSS | high polyreactivity |
| QVQLVESGGGLVQAGGSLRLSCAASGSIFYSYAMGWYRQAHGKERELVAAITSGDITYYADSVKGRFTISRDNAKNTVYLQMNSLKPEDTAVYYCAAESYAWWDKQFLYRYDYWGQGTQVTVSS | low polyreactivity |
| QVQLVESGGGLVQAGGSLRLSCAASGFIFGGYPMGWYRQAPGKERELVAAITIRGGSTSYADSVKGRFTISRDIAMNTVYLQMNSLKPEDSAVYYCNRQSRNAGGYYWGQGTQVTVSS | low polyreactivity |
| QVQLVESGGGLVQAGGSLRLSCAASGSTLDDYVMGWYRQAPGKERELVAAISSSGSGTYYADSVKGRFTISRDNAKNTVYLQMNSLKPEDTAVYYCAAAYSYSGYGYYTYDYWGQGTQVTVSS | low polyreactivity |
| QVQLVESGGGLVQAGGSLRLSCAASGFTFVSYAMGWYRQAPGKERELVASITWTGGSTYYADSVKGRFTISRDYAKNTVYLQMNSLKPEDTAVYYCAAQQFYSGILGRYYWGQGTQVTVSS | low polyreactivity |
| QVQLVESGGGLVQAGGSLRLSCAASGLIFLSHTMGWYRQAPGKERELVATIDGGAGSTYYADSVKGRFTFSRDNAKNTVYLQMNSLKPEDTAVYYCAATTIPGWFGSFPVSAGDYWGQGTQVTVSS | low polyreactivity |
| QVQLVESGGGLVQARGSLRLSCAASGIILYRNGMGWYRQAPGKERELVAAISWSTGSTYYADSVKGRFTISRDNAKNTVYLQMNSLKPEDTAVYYCATDYVGYSFGMYYWGQGTQVTVSS | low polyreactivity |
| QVQLVESGGGLVQAGGSLRLSCAASGRTFSNYAMGWYRQAPGKERELVAAITGSGGSTYYADSVKGRFTISRDNAKNTVYLQMHSLKPEDTAVYYCNAYRASKYLTGNGHDYWGQGTQVTVSS | low polyreactivity |
| QVQLVESGGGLVQAGGSLRLSCAASGRIFDYYAMGWYRQAPGKERELVARISIGGSTYADSVKGRFTISRDNAKNTVYLQMNSLKPEDSAVDYCADSTIRLVGYRTYWGPRYDYWGQGTQVTVSS | low polyreactivity |
